The supplement of paper PMC9112550, “Optimization of the antimicrobial peptide Bac7 by deep mutational scanning” (BMC Biology, 2022)

Tested on: Escherichia coli TOP10
Test: shrunken log2 fold change of peptide-encoding DNA abundance (4.5 h post-induction vs induction); higher = less antimicrobial activity (less host growth inhibition)
Settings: time post-induction: 4.5 h; library: site-saturation at positions 5, 18, 19, 20
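Also: peptides expressed intracellularly from a pBAD plasmid library in pooled LB shake-flask culture, induced with 0.3% L-arabinose, DNA abundance read by NGS, three biological replicates, DESeq2 with apeglm shrinkage.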

Sequence | shrunken log2 fold change
RRIRLRPPRLPRPRPRPGNCPRP | -0.0913
RRIRLRPPRLPRPRPRPGNKPRP | -0.46
RRIRLRPPRLPRPRPRPGNLPRP | -0.137
RRIRLRPPRLPRPRPRPGPEPRP | 0.685
RRIRLRPPRLPRPRPRPGRAPRP | 0.469
RRIRLRPPRLPRPRPRPGRVPRP | 0.242
RRIRLRPPRLPRPRPRPGSKPRP | -0.559
RRIRLRPPRLPRPRPRPGSVPRP | 0.0433
RRIRLRPPRLPRPRPRPGVKPRP | 0.108
RRIRLRPPRLPRPRPRPGWHPRP | 0.13
RRIRLRPPRLPRPRPRPGWMPRP | 0.0923
RRIRLRPPRLPRPRPRPGYAPRP | 0.119
RRIRLRPPRLPRPRPRPGYKPRP | -0.514
RRIRLRPPRLPRPRPRPHATPRP | -0.0435
RRIRLRPPRLPRPRPRPHCQPRP | -0.0416
RRIRLRPPRLPRPRPRPHDKPRP | 0.0709
RRIRLRPPRLPRPRPRPHFCPRP | 0.0717
RRIRLRPPRLPRPRPRPHGSPRP | -0.0692
RRIRLRPPRLPRPRPRPHHPPRP | -0.316
RRIRLRPPRLPRPRPRPHHVPRP | -0.272
RRIRLRPPRLPRPRPRPHIEPRP | -0.0305
RRIRLRPPRLPRPRPRPHINPRP | -0.645
RRIRLRPPRLPRPRPRPHIPPRP | -0.664
RRIRLRPPRLPRPRPRPHKLPRP | -0.1
RRIRLRPPRLPRPRPRPHKQPRP | -0.0935

Sequence | shrunken log2 fold change
RRIRLRPPRLPRPRPRPHMHPRP | -0.578
RRIRLRPPRLPRPRPRPHMQPRP | -0.556
RRIRLRPPRLPRPRPRPHNGPRP | -0.00962
RRIRLRPPRLPRPRPRPHNRPRP | -0.205
RRIRLRPPRLPRPRPRPHPAPRP | 0.12
RRIRLRPPRLPRPRPRPHPEPRP | 0.0233
RRIRLRPPRLPRPRPRPHPHPRP | -0.0325
RRIRLRPPRLPRPRPRPHPVPRP | 0.0604
RRIRLRPPRLPRPRPRPHQKPRP | -0.0932
RRIRLRPPRLPRPRPRPHQLPRP | -0.25
RRIRLRPPRLPRPRPRPHQNPRP | -0.149
RRIRLRPPRLPRPRPRPHTIPRP | -0.165
RRIRLRPPRLPRPRPRPHVNPRP | -0.105
RRIRLRPPRLPRPRPRPHVRPRP | 0.0652
RRIRLRPPRLPRPRPRPHVVPRP | 0.00383
RRIRLRPPRLPRPRPRPHWAPRP | -0.177
RRIRLRPPRLPRPRPRPHWGPRP | 0.0796
RRIRLRPPRLPRPRPRPHWKPRP | 0.0019
RRIRLRPPRLPRPRPRPHYFPRP | -0.404
RRIRLRPPRLPRPRPRPHYQPRP | -0.361
RRIRLRPPRLPRPRPRPIDKPRP | -0.122
RRIRLRPPRLPRPRPRPIEHPRP | -0.31
RRIRLRPPRLPRPRPRPIEKPRP | 0.000506
RRIRLRPPRLPRPRPRPIHKPRP | 0.195
RRIRLRPPRLPRPRPRPIIMPRP | -0.252

Sequence | shrunken log2 fold change
RRIRLRPPRLPRPRPRPIKCPRP | -0.152
RRIRLRPPRLPRPRPRPIKLPRP | -0.515
RRIRLRPPRLPRPRPRPIKPPRP | 0.0261
RRIRLRPPRLPRPRPRPILPPRP | -0.0368
RRIRLRPPRLPRPRPRPILVPRP | -0.157
RRIRLRPPRLPRPRPRPIMDPRP | -0.0403
RRIRLRPPRLPRPRPRPIMFPRP | -0.488
RRIRLRPPRLPRPRPRPINAPRP | -0.177
RRIRLRPPRLPRPRPRPINDPRP | -0.35
RRIRLRPPRLPRPRPRPINNPRP | -0.705
RRIRLRPPRLPRPRPRPIQFPRP | -0.0198
RRIRLRPPRLPRPRPRPIQYPRP | 0.147
RRIRLRPPRLPRPRPRPISYPRP | -0.334
RRIRLRPPRLPRPRPRPIVQPRP | -1.06
RRIRLRPPRLPRPRPRPIWHPRP | -0.0382
RRIRLRPPRLPRPRPRPKAEPRP | 0.375
RRIRLRPPRLPRPRPRPKAFPRP | 0.0112
RRIRLRPPRLPRPRPRPKCWPRP | 0.323
RRIRLRPPRLPRPRPRPKDIPRP | -0.23
RRIRLRPPRLPRPRPRPKDMPRP | -0.0444
RRIRLRPPRLPRPRPRPKEGPRP | -0.0145
RRIRLRPPRLPRPRPRPKETPRP | 0.137
RRIRLRPPRLPRPRPRPKFHPRP | -0.174
RRIRLRPPRLPRPRPRPKFNPRP | -0.437
RRIRLRPPRLPRPRPRPKFPPRP | -0.26

Sequence | shrunken log2 fold change
RRIRLRPPRLPRPRPRPKFYPRP | -0.369
RRIRLRPPRLPRPRPRPKGNPRP | -0.0951
RRIRLRPPRLPRPRPRPKGQPRP | -0.11
RRIRLRPPRLPRPRPRPKLDPRP | -0.0265
RRIRLRPPRLPRPRPRPKLNPRP | -0.182
RRIRLRPPRLPRPRPRPKMVPRP | -0.146
RRIRLRPPRLPRPRPRPKNDPRP | -0.563
RRIRLRPPRLPRPRPRPKNMPRP | -0.448
RRIRLRPPRLPRPRPRPKNVPRP | -0.124
RRIRLRPPRLPRPRPRPKSHPRP | -0.261
RRIRLRPPRLPRPRPRPKSVPRP | 0.0155
RRIRLRPPRLPRPRPRPKTYPRP | -0.511
RRIRLRPPRLPRPRPRPKWFPRP | 0.154
RRIRLRPPRLPRPRPRPKYFPRP | -0.269
RRIRLRPPRLPRPRPRPLANPRP | -0.00613
RRIRLRPPRLPRPRPRPLASPRP | 0.177
RRIRLRPPRLPRPRPRPLAYPRP | -0.264
RRIRLRPPRLPRPRPRPLCAPRP | 0.11
RRIRLRPPRLPRPRPRPLDCPRP | 0.0132
RRIRLRPPRLPRPRPRPLDGPRP | -0.0562
RRIRLRPPRLPRPRPRPLGIPRP | -0.199
RRIRLRPPRLPRPRPRPLGKPRP | -0.0194
RRIRLRPPRLPRPRPRPLHLPRP | -0.21
RRIRLRPPRLPRPRPRPLIAPRP | -0.498
RRIRLRPPRLPRPRPRPLIFPRP | -0.656

Sequence | shrunken log2 fold change
RRIRLRPPRLPRPRPRPLLAPRP | 0.188
RRIRLRPPRLPRPRPRPLMNPRP | -0.253
RRIRLRPPRLPRPRPRPLPGPRP | 0.781
RRIRLRPPRLPRPRPRPLPPPRP | 0.678
RRIRLRPPRLPRPRPRPLQVPRP | 0.109
RRIRLRPPRLPRPRPRPLRQPRP | 0.385
RRIRLRPPRLPRPRPRPLTVPRP | 0.127
RRIRLRPPRLPRPRPRPLVHPRP | -0.0413
RRIRLRPPRLPRPRPRPLWHPRP | 0.0621
RRIRLRPPRLPRPRPRPLYWPRP | -0.372
RRIRLRPPRLPRPRPRPMARPRP | 0.0339
RRIRLRPPRLPRPRPRPMAYPRP | -0.0987
RRIRLRPPRLPRPRPRPMCVPRP | -0.231
RRIRLRPPRLPRPRPRPMDEPRP | -0.119
RRIRLRPPRLPRPRPRPMESPRP | -0.0323
RRIRLRPPRLPRPRPRPMFEPRP | -0.00818
RRIRLRPPRLPRPRPRPMFFPRP | -0.381
RRIRLRPPRLPRPRPRPMFPPRP | -0.281
RRIRLRPPRLPRPRPRPMGAPRP | 0.316
RRIRLRPPRLPRPRPRPMGFPRP | -0.159
RRIRLRPPRLPRPRPRPMGMPRP | 0.0771
RRIRLRPPRLPRPRPRPMGQPRP | 0.0212
RRIRLRPPRLPRPRPRPMHLPRP | -0.0248
RRIRLRPPRLPRPRPRPMHPPRP | -0.0318
RRIRLRPPRLPRPRPRPMKEPRP | -0.019

Sequence | shrunken log2 fold change
RRIRLRPPRLPRPRPRPMKLPRP | -0.187
RRIRLRPPRLPRPRPRPMLEPRP | 0.0968
RRIRLRPPRLPRPRPRPMQHPRP | 0.256
RRIRLRPPRLPRPRPRPMREPRP | 1.25
RRIRLRPPRLPRPRPRPMTEPRP | -0.0455
RRIRLRPPRLPRPRPRPMTTPRP | 0.0748
RRIRLRPPRLPRPRPRPMVGPRP | -0.135
RRIRLRPPRLPRPRPRPMVWPRP | 0.0457
RRIRLRPPRLPRPRPRPMWNPRP | -0.299
RRIRLRPPRLPRPRPRPMYKPRP | -0.44
RRIRLRPPRLPRPRPRPMYWPRP | -0.115
RRIRLRPPRLPRPRPRPNCKPRP | -0.143
RRIRLRPPRLPRPRPRPNEGPRP | 0.00337
RRIRLRPPRLPRPRPRPNEHPRP | -0.175
RRIRLRPPRLPRPRPRPNFKPRP | -0.206
RRIRLRPPRLPRPRPRPNGEPRP | 0.00184
RRIRLRPPRLPRPRPRPNGLPRP | -0.0171
RRIRLRPPRLPRPRPRPNHNPRP | -0.726
RRIRLRPPRLPRPRPRPNICPRP | -0.132
RRIRLRPPRLPRPRPRPNKSPRP | -0.354
RRIRLRPPRLPRPRPRPNPCPRP | -0.398
RRIRLRPPRLPRPRPRPNPKPRP | -0.0548
RRIRLRPPRLPRPRPRPNRRPRP | 0.0365
RRIRLRPPRLPRPRPRPNRSPRP | -0.0205
RRIRLRPPRLPRPRPRPNSCPRP | 0.00169
